Experimental data: US12502351B2, “Receptor targeting constructs and uses thereof” (Cedars-Sinai Medical Center, priority 2014, dated 2025)

B1: HerPBK10: receptor binding region of heregulin-α (aa 35-239) fused to adenovirus penton base with decalysine tail (protein)
chain: LPPRLKEMKSQESAAGSKLVLRCETSSEYSSLRFKWFKNGNELNRKNKPQNIKIQKKPGKSELRINKASLADSGEYMCKVISKLGNDSASANITIVESNEIITGMPASTEGAYVSSESPIRISVSTEGANTSSSTSTSTTGTSHLVKCAEKEKTFCVNGGECFMVKDLSNPSRYLCKCQPGFTGARCTENVPMKVQNQEKAEELYMRRAAMYEEGPPPSYESVVSAAPVAAALGSPFDAPLDPPFVPPRYLRPTGGRNSIRYSELAPLFDTTRVYLVDNKSTDVASLNYQNDHSNFLTTVIQNNDYSPGEASTQTINLDDRSHWGGDLKTILHTNMPNVNEFMFTNKFKARVMVSRLPTKDNQVELKYEWVEFTLPEGNYSETMTIDLMNNAIVEHYLKVGRQNGVLESDIGVKFDTRNFRLGFDPVTGLVMPGVYTNEAFHPDIILLPGCGVDFTHSRLSNLLGIRKRQPFQEGFRITYDDLEGGNIPALLDVDAYQASLKDDTEQGGGGAGGSNSSGSGAEENSNAAAAAMQPVEDMNDHAIRGDTFATRAEEKRAEAEAAAEAAAPAAQPEVEKPQKKPVIKPLTEDSKKRSYNLISNDSTFTQYRSWYLAYNYGDPQTGIRSWTLLCTPDVTCGSEQVYWSLPDMMQDPVTFRSTRQISNFPVVGAELLPVHSKSFYNDQAVYSQLIRQFTSLTHVFNRFPENQILARPPAPTITTVSENVPALTDHGTLPLRNSIGGVQRVTITDARRRTCPYVYKALGIVSPRVLSSRTFKKKKKKKKKK

How the values were obtained:
[1] = Tissue distribution in mice with no tumors; assay type: in vivo, mouse; conditions: tail vein injection
[2] = test system: MDA-MB-435 cells; experiment: Cy3-labeled oligonucleotide delivery, confocal immunofluorescence; assay type: cell-based, human; conditions: Cy3-labeled oligonucleotide 50 pmol, 1 h at 37° C.
Method: HerPBK10 transports a labeled oligonucleotide in MDA-MB-435 cells. To determine whether HerPBK10 can mediate single-stranded oligonucleotide delivery, a Cy3-labeled oligonucleotide (50 pmol) was incubated with HerPBK10 (5 μg) or Lipofectamine 2000 (Invitrogen, Carlsbad, CA, USA), a commercial transfection reagent as a comparative control, in 0.1 M HEPES/Optimem I (Invitrogen; Carlsbad, CA, USA) for 20 minutes at RT. The resulting mixture was added to MDA-MB-435 cells, which express HER, and incubated for 1 h at 37° C. Cells were fixed in 4% PFA for 15′ at RT and processed for immunofluorescence against HerPBK10. Cells were counterstained with DAPI to identify nuclei. Images were acquired using a Leica SP2 laser scanning confocal microscope.

[3] = target: T1, HER3 (human ErbB3 extracellular domain) (Homo sapiens, UniProt P21860); experiment: ELISA of HerPBK10 binding to immobilized HER3
T1 construct: an immobilized peptide containing the extracellular domain of human HER3; purchased Prospec
T1 sequence (P21860 20-643 limits assumed): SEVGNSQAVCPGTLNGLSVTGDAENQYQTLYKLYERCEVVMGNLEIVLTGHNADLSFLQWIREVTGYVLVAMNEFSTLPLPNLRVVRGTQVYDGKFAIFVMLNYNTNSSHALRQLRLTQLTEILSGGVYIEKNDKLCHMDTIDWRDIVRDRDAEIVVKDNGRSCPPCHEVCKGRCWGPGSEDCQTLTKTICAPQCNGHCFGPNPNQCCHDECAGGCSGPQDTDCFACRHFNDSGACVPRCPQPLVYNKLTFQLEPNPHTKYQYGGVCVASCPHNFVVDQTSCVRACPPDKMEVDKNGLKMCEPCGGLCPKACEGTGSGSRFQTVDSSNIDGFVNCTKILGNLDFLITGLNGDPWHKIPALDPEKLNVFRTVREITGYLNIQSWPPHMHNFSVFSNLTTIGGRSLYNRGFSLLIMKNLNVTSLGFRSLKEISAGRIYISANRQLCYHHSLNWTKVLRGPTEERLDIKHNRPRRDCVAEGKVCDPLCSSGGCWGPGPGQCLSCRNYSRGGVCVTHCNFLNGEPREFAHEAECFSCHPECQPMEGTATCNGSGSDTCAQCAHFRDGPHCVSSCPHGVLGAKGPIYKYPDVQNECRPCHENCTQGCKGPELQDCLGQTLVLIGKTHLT
Description: (§1) FIGS. 12A-12C is a group of graphs showing HerPBK10 binds to HER3 and is not inhibited by patient serum. […] Un: no HerPBK10. […] Control samples were bound in bovine serum and receptor-binding verified by competitive inhibition with recombinant heregulin ligand (+Her). N=3. *, p<0.05 compared to control (−Her: no competitive inhibitor).

[4] = target: T2, HER3 (Homo sapiens, UniProt P21860); experiment: ELISA of HerPBK10 binding to HER2+ cells with competitive inhibitors or sera
T2 construct: endogenous in cells
T2 sequence (P21860 20-1342): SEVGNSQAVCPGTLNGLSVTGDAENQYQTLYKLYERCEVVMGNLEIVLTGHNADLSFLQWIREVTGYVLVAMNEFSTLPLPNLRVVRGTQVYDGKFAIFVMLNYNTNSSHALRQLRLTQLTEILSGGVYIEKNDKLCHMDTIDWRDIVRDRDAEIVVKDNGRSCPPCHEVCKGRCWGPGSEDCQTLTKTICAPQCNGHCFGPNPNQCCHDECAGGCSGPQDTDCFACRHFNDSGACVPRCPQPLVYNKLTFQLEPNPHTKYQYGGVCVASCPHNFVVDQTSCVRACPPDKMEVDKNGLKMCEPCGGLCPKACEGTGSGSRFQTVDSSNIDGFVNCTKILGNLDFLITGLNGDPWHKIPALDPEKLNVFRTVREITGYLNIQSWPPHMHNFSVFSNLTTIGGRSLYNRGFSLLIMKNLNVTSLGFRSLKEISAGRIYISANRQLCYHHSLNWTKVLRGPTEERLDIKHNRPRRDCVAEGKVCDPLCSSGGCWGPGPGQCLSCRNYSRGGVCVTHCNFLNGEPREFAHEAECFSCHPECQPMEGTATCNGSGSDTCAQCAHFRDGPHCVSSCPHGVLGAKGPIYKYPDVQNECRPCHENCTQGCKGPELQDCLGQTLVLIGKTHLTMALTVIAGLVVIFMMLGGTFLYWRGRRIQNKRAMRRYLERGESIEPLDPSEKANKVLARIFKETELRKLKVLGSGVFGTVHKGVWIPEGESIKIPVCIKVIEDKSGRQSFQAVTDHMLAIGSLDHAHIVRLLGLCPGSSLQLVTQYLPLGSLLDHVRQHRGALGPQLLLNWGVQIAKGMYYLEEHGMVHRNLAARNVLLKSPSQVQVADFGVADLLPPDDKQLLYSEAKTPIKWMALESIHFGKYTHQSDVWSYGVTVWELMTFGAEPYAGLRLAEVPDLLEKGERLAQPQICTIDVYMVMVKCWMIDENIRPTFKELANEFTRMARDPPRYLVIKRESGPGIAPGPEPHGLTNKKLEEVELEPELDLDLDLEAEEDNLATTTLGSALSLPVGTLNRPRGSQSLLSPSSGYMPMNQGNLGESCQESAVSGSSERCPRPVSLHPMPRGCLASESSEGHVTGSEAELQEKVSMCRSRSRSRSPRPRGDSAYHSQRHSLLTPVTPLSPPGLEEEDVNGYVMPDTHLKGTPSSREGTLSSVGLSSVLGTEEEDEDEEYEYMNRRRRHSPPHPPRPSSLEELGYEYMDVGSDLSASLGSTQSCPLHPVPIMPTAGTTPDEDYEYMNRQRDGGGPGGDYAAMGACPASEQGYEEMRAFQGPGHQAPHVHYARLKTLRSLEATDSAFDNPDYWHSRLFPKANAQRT
Description: as §1

[5] = target: T3, mouse HER3 (Mus musculus, UniProt Q61526); experiment: Binding of HerPBK10 to 4T1 mouse mammary tumor cells; conditions: soluble HER3 peptide as competitive inhibitor
T3 construct: endogenous in cells; host or cells: 4T1 mouse mammary tumor cells
T3 sequence (Q61526 20-1339): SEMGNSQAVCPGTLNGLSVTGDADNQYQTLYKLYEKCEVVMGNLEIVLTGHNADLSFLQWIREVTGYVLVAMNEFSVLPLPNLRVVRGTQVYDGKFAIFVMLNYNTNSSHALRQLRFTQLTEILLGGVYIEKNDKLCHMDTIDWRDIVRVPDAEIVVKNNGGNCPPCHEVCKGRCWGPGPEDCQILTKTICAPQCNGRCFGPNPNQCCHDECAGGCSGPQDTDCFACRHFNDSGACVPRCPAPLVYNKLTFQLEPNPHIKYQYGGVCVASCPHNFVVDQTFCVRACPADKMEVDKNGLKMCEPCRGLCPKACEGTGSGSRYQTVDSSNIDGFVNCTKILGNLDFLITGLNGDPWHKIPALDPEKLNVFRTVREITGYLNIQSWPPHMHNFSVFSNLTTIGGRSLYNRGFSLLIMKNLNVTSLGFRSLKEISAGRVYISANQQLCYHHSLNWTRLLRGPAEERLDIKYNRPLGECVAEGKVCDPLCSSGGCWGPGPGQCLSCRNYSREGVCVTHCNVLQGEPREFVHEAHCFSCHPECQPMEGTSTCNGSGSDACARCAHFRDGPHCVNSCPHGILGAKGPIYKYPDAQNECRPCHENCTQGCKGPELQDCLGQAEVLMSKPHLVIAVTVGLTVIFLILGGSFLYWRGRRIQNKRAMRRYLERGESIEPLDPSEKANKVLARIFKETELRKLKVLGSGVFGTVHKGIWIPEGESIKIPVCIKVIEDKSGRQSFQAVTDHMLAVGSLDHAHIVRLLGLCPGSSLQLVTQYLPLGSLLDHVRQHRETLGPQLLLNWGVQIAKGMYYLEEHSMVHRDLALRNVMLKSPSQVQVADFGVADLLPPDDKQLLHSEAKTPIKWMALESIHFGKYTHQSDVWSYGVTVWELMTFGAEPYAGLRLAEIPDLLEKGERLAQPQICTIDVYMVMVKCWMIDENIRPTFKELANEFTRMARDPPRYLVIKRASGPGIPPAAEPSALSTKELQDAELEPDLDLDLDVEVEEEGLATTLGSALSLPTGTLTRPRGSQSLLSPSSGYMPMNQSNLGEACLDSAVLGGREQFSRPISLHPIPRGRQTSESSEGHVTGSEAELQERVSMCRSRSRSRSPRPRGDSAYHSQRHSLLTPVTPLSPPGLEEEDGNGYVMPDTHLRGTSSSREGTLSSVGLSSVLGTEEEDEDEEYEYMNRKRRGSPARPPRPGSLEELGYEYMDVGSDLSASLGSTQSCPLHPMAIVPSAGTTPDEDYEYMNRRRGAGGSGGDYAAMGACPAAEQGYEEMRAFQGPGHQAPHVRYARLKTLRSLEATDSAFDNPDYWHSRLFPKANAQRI
Description: FIGS. 13A-13C show the results that HerPBK10 binds to mouse HER3. […] Blue residues indicate amino acid differences. […] N=3. *, p<0.05 compared to HerPBK10 alone

[6] = target: T2, HER3; conditions: cells in culture; cited from earlier work
[7] = test system: HER2+ tumors; conditions: cited from earlier work
[8] = repeat dosing, immune-competent mice; cited from earlier work
[9] = test system: human cardiosphere-derived cells (CDCs); experiment: Human CDC viability; conditions: 2 or 5 days exposure

Molecule	brain delivery in mice without tumors [1]	oligonucleotide transport into cells [2]	binding to immobilized HER3 [3]	binding to immobilized HER3 with HER3 block ([3]; pre-incubation with soluble HER3 peptide)	binding with HER4 peptide or betacellulin ([4]; betacellulin 10 μg/mL)	binding to cellular HER3 with pertuzumab (Pz) ([4]; heterodimerization-inhibiting antibody)	binding to HER2+ cells in patient serum ([4]; sera from HER2+ patients and age-matched controls)	binding to human HER3+ cells with HER3 peptide ([4]; soluble HER3 peptide as competitive inhibitor)	binding to mouse HER3+ cells with HER3 peptide [5]	receptor binding with polyclonal antibodies against whole adenovirus [6]	dose for tumor growth ablation compared to doxorubicin ([7]; HER2+ tumors in mice) [× lower dose]	effect on heart and liver tissue ([7]; mouse, in vivo)	immunogenicity ([7]; mouse, in vivo)	neutralizing antibody formation [8]	CDC viability [9]
PBK10: recombinant protein derived from the adenovirus capsid penton base with decalysine	no detectable brain delivery														
B1	show brain localization	colocalized with the oligonucleotide during binding and uptake	bind to an immobilized peptide containing the extracellular domain of human HER3	inhibited by pre-adsorption of HerPBK10 with free HER3 peptide	not inhibited by a HER4 peptide or betacellulin	does not prevent HerPBK10 binding to cellular HER3	do not prevent HerPBK10 binding to HER2+ cells in culture	inhibits binding	inhibits binding	do not prevent receptor binding to cells in culture	> 10	sparing heart and liver tissue	no detectable immunogenicity	do not produce detectable neutralizing antibody formation against the protein	no toxic or growth promoting effect on tumor cells or CDCs
